The results in this text go back to article PMC5404317.

This test addresses HSP90, P07900. Description: co-immunoprecipitation (V5 agarose) with western blot quantification. To be noted: chain shown with the change, HeLa cells, read off a plot.
[1] abbreviates: 10 μM CCCP for 2 h, parent: est. 0.82.
[2] abbreviates: untreated (no CCCP), parent: est. 1.0.

Substitutions are numbered along the chain they refer to. Names may count otherwise.

B1: PINK1-V5 WT (V5-6xHis-tagged PINK1 wild type), Q9BXM7 L347P (protein)
chain: AARLQRQFVVRAWGCAGPCGRAVFLAFGLGLGLIEEKQAESRRAVSACQEIQAIFTQKSKPGPDPLDTRRLQGFRLEEYLIGQSIGKGCSAAVYEATMPTLPQNLEVTKSTGLLPGRGPGTSAPGEGQERAPGAPAFPLAIKMMWNISAGSSSEAILNTMSQELVPASRVALAGEYGAVTYRKSKRGPKQLAPHPNIIRVLRAFTSSVPLLPGALVDYPDVLPSRLHPEGLGHGRTLFLVMKNYPCTLRQYLCVNTPSPRLAAMMLLQLPEGVDHLVQQGIAHRDLKSDNILVELDPDGCPWLVIADFGCCLADESIGLQLPFSSWYVDRGGNGCLMAPEVSTARPGPRAVIDYSKADAWAVGAIAYEIFGLVNPFYGQGKAHLESRSYQEAQLPALPESVPPDVRQLVRALLQREASKRPSARVAANVLHLSLWGEHILALKNLKLDKMVGWLLQQSAATLLANRLTEKCCVETKMKMLFLANLECETLCQAALLLCSWRAAL
As to B1, the response (HSP90/V5 ratio) reads like this: under setting [1], 0.42; under setting [2], 0.54.

B2: PINK1-V5 WT (V5-6xHis-tagged PINK1 wild type), Q9BXM7 I368N (protein)
chain: B1 chain with P270L, I291N
On to B2, for which the response (HSP90/V5 ratio) runs as follows: under setting [1], 0.62; under setting [2], 0.6.
